Read-outs that look alike come from different tables or passages of the source.
T1: Yos9p (S. cerevisiae, UniProt Q99220 22-542)
T1 sequence: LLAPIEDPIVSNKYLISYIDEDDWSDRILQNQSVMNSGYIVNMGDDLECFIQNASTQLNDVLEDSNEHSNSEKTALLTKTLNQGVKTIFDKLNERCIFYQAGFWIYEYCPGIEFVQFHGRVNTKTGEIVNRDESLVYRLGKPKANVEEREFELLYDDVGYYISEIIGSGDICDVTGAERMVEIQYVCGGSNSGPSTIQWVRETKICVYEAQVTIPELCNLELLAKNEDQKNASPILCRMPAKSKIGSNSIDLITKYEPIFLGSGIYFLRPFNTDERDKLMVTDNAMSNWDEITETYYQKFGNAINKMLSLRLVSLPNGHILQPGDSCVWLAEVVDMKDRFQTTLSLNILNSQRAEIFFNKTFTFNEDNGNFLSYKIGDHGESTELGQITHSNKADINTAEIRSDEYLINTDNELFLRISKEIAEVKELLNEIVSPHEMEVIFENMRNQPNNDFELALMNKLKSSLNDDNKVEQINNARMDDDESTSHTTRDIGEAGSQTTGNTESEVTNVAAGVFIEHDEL

T2: Pdi1p (S. cerevisiae, UniProt P17967 29-522)
T2 sequence: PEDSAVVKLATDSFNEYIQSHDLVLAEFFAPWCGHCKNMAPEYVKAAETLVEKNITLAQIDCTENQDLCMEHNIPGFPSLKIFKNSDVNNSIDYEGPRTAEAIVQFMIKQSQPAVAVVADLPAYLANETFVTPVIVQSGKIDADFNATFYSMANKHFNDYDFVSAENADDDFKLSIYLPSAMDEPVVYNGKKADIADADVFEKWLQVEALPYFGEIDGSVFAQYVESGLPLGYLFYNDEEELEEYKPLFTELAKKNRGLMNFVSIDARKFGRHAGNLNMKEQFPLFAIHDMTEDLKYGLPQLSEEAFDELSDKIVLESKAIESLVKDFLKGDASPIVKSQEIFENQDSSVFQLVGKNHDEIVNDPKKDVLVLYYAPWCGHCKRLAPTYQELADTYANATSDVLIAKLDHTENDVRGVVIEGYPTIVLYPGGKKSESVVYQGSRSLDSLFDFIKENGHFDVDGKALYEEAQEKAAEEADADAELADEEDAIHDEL

T3: Mpd1p (S. cerevisiae, UniProt Q12404 22-318)
T3 sequence: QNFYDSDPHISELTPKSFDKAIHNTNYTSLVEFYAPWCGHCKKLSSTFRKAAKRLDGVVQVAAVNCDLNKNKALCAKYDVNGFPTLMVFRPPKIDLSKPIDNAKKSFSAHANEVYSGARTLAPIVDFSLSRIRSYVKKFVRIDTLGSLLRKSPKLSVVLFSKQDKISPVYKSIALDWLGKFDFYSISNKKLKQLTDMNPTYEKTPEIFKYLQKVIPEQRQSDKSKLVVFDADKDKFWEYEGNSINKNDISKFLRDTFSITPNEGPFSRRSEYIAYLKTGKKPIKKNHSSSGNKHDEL

T4: Sil1p (S. cerevisiae, UniProt Q08199 20-421)
T4 sequence: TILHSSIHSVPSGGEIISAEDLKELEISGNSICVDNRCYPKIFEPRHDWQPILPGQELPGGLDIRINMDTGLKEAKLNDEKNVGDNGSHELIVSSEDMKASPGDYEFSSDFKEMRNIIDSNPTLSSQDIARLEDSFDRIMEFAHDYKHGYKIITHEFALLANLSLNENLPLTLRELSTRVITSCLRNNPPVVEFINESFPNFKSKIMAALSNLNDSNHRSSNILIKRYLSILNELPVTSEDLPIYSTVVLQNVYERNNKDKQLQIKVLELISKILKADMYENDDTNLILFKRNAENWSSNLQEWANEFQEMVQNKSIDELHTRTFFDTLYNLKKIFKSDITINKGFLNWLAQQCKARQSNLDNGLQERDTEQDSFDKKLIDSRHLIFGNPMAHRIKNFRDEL

T5: Scj1p (S. cerevisiae, UniProt P25303 22-377)
T5 sequence: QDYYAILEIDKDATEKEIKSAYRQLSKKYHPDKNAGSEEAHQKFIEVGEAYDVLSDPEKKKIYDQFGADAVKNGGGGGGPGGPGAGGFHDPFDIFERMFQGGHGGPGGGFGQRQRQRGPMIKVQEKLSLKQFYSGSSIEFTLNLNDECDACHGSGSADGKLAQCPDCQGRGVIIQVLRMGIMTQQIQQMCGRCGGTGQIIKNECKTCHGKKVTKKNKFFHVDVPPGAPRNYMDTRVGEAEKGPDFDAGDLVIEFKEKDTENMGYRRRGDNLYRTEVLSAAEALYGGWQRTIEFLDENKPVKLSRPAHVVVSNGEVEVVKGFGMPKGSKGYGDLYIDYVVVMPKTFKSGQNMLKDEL

B1: Kar2p (natural protein)
chain: not shown

Experiments:
Assay in all cases: split reporter
Kar2p = biological target: B1
Chain of Kar2p (P16474 43-682): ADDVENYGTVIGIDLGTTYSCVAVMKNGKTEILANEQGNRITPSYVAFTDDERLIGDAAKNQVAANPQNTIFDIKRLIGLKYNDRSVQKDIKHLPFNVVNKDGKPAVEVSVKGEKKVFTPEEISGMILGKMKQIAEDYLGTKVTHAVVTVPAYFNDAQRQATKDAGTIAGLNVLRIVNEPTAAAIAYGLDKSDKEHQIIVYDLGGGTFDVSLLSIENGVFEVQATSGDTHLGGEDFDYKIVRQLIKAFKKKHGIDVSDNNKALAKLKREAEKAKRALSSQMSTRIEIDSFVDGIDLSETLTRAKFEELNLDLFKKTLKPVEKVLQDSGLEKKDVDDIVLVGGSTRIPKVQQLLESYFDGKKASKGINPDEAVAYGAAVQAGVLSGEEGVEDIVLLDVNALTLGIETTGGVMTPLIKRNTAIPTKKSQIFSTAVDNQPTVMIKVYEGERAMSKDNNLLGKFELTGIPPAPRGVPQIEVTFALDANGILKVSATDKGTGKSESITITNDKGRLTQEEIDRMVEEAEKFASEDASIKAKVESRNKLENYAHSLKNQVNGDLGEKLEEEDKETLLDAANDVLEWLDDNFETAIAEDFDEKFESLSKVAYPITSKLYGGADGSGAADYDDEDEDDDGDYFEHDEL

Yos9p [1] = biological target: T1, Yos9p
Cpr5p [2] = biological target: T6, Cpr5p (S. cerevisiae, UniProt P35176 23-225)
T6 sequence (P35176 23-225): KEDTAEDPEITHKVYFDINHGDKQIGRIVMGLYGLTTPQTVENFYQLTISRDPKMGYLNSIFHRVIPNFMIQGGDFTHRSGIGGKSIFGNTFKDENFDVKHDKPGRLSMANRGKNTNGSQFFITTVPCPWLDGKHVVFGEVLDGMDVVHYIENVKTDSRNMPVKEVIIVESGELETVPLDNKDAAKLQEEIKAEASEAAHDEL

Yos9p [3] = biological target: T1, Yos9p; remark: listed apart in the source
Cpr5p [4] = biological target: T6, Cpr5p; remark: listed apart in the source
Pdi1p = biological target: T2, Pdi1p
Mpd1p [5] = biological target: T3, Mpd1p
Mpd1p [6] = biological target: T3, Mpd1p; remark: listed apart in the source
Sil1p = biological target: T4, Sil1p
Scj1p = biological target: T5, Scj1p

normalized interacting score (Kar2p) | normalized interacting score (Yos9p [1]) | normalized interacting score (Cpr5p [2]) | normalized interacting score (Yos9p [3]) | normalized interacting score (Cpr5p [4]) | normalized interacting score (Pdi1p) | normalized interacting score (Mpd1p [5]) | normalized interacting score (Mpd1p [6]) | normalized interacting score (Sil1p) | normalized interacting score (Scj1p) | Binder
34% | – | – | – | – | – | – | – | – | – | Sed4p (natural protein) MSGNSANYDVGYPIYGAKFINEGTLLVAGGGGQFNSSFPNKITALKVNFQKKKHIRRFREITLDSIDDAPTSLDCNNNLILVGCNELFNDSSMENVNHHLRKFVFEQEHLKFVASIDFNRTTDPSVFTKFVYINQRATVAAIASSEVPTVIRIIDPRNLTENYEIETGREVNDLHFAPNGILLSYITSNSLEVASVRDGNFVARKTDFDKNLVLSNIRFLNDNTLLVAASLSNSDGVSLLKLGVSSKGVKILKTASFMFDLNGITSMDVSPNKKFVALSSNDNLVAIVSVEKLKLVQLVPRVHESTITKVTFSPDSRYLASTSMGNTINVLKLSGTSSSILRNIWKFFLNFVLLVVLAGAIQLGYKHNVHGFIYKHAHDIYKSKFKENTTIDQGSSSYFTINDDYRGITESADIISATDVASDIETEFSSFDTSTMRTTTEDEQKFVWISSSADSQFTSADIPTSASSSSSSSSSSFYEESVTNEPIVSSPTSEITKPLASPTEPNIVEKPSLPLNSESIDLLSSSSNSITEYPEPTPDLEEKLSSLIVEQSESEITTDRESVSKLLSTESPSLSHMPSSSSSSLSLSSSLTTSPTTALSTSTATAVTTTQTNPTNDAANTSFLDNSKPASTREIYKTKIITEVITKIEYRNIPASDSNAEAEQYVTTSSSMLLTPTDTMVSSPVSEIDPIASELERMVETPTHSISIASEFDSVASNLIPNEEILSTSASQDSISSHPSTFSDSSITSGFQSIEVSTVTSSVLASESIPSISDSTFSKFHSISEPVSSAIVETATSSFSKTETKTSRVIAFSTEDSERSSALIDNSEYTSVLADNLEPTSVLADNSEPTSVLADSSEPTSVFTDAVQSPKTSVGQSSLSESTNIEGTSMASMIFSSSGASIGALSDIGKGTLSVESASSTVAQPMPGVTTTAPSFVSSPHKISASSIDASGFVQKEIMIEVQSSKDSSEAFGVRHKISENVNTPVSRMLTTEMQASGTVDVTEDVSLSSEVISALNVEITSLPNPVAPPQTIAAPLNNNSNTNIVNDDNAVAGTVNYAGLHDEL
– | 16% | 22% | 64% | 59% | 23% | 21% | – | – | – | Kre5p (natural protein) WTYSLRYGIPESAQVWSILVHLLGDVDNQLLTNLYPLVTGLDDEIDIQENLVALTSNVLRERYDKEDVADLLELYASLYPMGMIQHDISSNAEQDDANSSYFVLNGNRYEKPDDVFYLKSKDLTIQQKVPDVDVIQPYDVVIGTNSEAPILILYGCPTVIDSDFEEFNRNLFMEAMNGEGKFRFIWRSTCSLDGKSVEYPLTHPLEITLQNGSRMSSIPQLKKILYTVPKEILVGADNDDQLHDLEPEELRELDLRVTSLISEFYQYKKDITATLNFTKSIVNNFPLISKQLIKVSSVNKDIITSNEELNSKGFDYNMLGLYINGQNWKITSLTPYNLLTALKTEYQSLLKITNLLQELEPSKCILDSKFLLNKFSQFSLGKLQNLQPIKMDLHTIPGFSESVIYFNDIESDPQYDELVNSVQAFFDKSKFGELPEIKQNWSEIIFVIDFARLEDSEVKEALGGLVRAVNVVSQGYPQRVGLLPFSSDSDKSVVNKIYELKNSTDNLTELKSFLETMLLADGLSANAKHSKHIPVPDVFHLLDELQIDETSIIINGEIYPFRKNAWNYLIAKVIKKDTEFIRKELSNSSPKNKQISVRDLLHYKSANLRHNKYTPNYFADSVYSSVNNTALESVCSERIGYYTKNEEYNLLHTITLVDDFGSIHALKRLRNLLHTSFVGVRIRIIHVGDISDIWYQLRGSLSQKDPIGSINTFIDALKLKKVKSHTYKKSGLNQLGLHKWLPDIPLFELQKGSFIALNGRFIHLDQNEVPETEHFEAIIKREALRTIDSVFALDLLFPGFSQEIINPDLIEMISSILTRLFYQGTHIYNNGIDYTTESSLPRMDLSEFFRPNNLTMFEDGKSASIDLLLILDPLEERTQMILSLVEQFRPLKFVNIQVILMPTLELNIVPIRRIYVDDADIVKSITSEDSRSDPEVDIEMDVPNSFIVDNNYRIKKLLIELHSFSSKTVLSTGNIDGMGGVCLALVDSAGNIIDKTTTMKTFGYGQFHTDKFLKGCYIKSCDSRYTVQSFSTDGHPDFIPSDSLDILSYNPQKIAVKISEEPTHEEEYEEGRNNDTIINIFTILESGPDEEERYMQMILSILSKCPETQKVNFFILDQPFISDTLRKSCEYINSSDEMRGNVIFLNYEWPQWLRPQRFSSRRRDVSRFLFLDVLLPQNISKVLYMSPTEVPLDPFDIFQFQGLKRAPLGLFRMSGDGYWKEGYWEKMLRENNLEFYSTEPAFLVNLERFRELDAGDKYRIHYQRISTDAMSLVNIGQDLVNNLQLEVPIRFLKGSYKKKLVINDECVSEWKKKINKFASSPGDEDVPGESVSSKYQDSDNAAPLHDEL
– | – | 31% | 20% | 78% | – | 86% | 65% | 35% | 10% | B1

From doi:10.1101/2024.05.21.594841 (bioRxiv, 2024)
